One test deals with MBP-PB1-ZZ D69A (human) (UniProt Q13501). In words: SPR; BIAcore 2000; MBP-PB1-ZZ WT or D69A immobilised on CM5; R-BiP N407 5-100 μM injected; 20 mM HEPES pH 7.5, 100 mM NaCl, 1 mM DTT.
In test [1] the target is MBP-fused PB1-ZZ of p62 (residues 1-181) wild type (human) (UniProt Q13501). The description is as above.

With “R-BiP N407 protein (from UniProt P11021 19-654) (domain or fragment)”, the Kd with MBP-PB1-ZZ D69A (human) turned out to be 26.1 µM; in test [1], 20.2 µM.

The values are drawn from article PMC6098011, “Insights into degradation mechanism of N-end rule substrates by p62/SQSTM1 autophagy adapter” (Nature Communications, 2018).
